Data as given in the supplement of paper PMC10567573.

B1: FCHO1 (parent)
chain: FTSSPSPFSSSSPENVEDSGLDSP
B2: FAM107A (parent)
chain: HRRGLGVDSKPELQRVLEHRRRNQ

Variants of: B1
Assay: protein stability index of a GFP-peptide fusion (GPS, HEK-293T) (PSI 1-6); higher = more stable
Details: c terminus: a fixed tail appended
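Note: lentivirally expressed fusions sorted by FACS into six bins by GFP to DsRed ratio, PSI derived from sequencing read proportions per bin multiplied by bin number.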

Protein stability index of substitutions, site by site:
S4: V 1.8 | M 1.73 | R 1.42 | Q 2.14 | I 2.19 | K 2.13 | H 1.91 | P 3.53 | F 2.9 | D 2.03 | Y 1.95 | G 2 | N 2.06 | C 2.35 | L 2.31 | A 1.71 | E 3.14 | T 1.93 | W 3.58
S3: F 2.6 | D 2.7 | M 2.38 | K 3.48 | R 3.59 | I 3.05 | G 1.38 | L 3.8 | N 2.71 | V 2.05 | C 2.01 | H 2.32 | Q 2.42 | A 2.26 | W 2.61 | P 2.52 | T 1.87 | Y 2.85 | E 2.79
T2: Q 1.58 | F 4.58 | A 2.26 | G 2.71 | N 3.96 | I 2.14 | D 4.91 | K 5.53 | S 2.86 | Y 4.84 | L 3.48 | C 2.02 | V 2.93 | E 5.36 | H 2.02 | R 5.01 | W 3.64 | P 2.65 | M 3.48
F1: T 5.38 | D 5.61 | Y 1.88 | N 5.29 | P 5.41 | S 5.49 | H 4.74 | K 5.56 | Q 5.16 | M 5.34 | E 5.62 | V 5.51 | I 5.67 | A 5.3 | W 5.16 | L 5.78 | R 5.69 | C 5.43 | G 5.46
P5: G 2.06 | C 1.96 | E 2.04 | A 1.88 | D 2.43 | F 2.32

Variants of: B2
Assay: as above
Details: c terminus: a fixed tail appended

Protein stability index: each site, then its substitutions
H19: N 4.93 | K 4.29 | S 4.82 | M 4.13 | I 4.04
N23: H 2.74 | Q 3.14
E18: T 3.58 | G 3.58 | S 2.71 | L 3.98
R3: A 4.9 | L 4.14 | S 4.91
R20: M 4.04 | D 3.98 | Y 3.41 | I 3.78
R15: Y 4.79 | N 4.29 | E 4.17 | S 4.43
D8: K 3.79 | I 3.74
L5: I 3.15 | R 5.2 | Q 5.16 | A 4 | H 4.21
R22: C 3.6 | D 4.62 | A 4.63
R21: K 4.15 | S 3.37 | L 3.77
P11: Q 3.73 | C 4.13 | W 3.25
Q14: N 4.5 | H 3.48 | K 3.39
G6: T 2.78 | P 4.63 | F 3.06 | M 4.25
H1: S 4.16 | W 3.11 | K 4.53
R2: E 4.7 | T 4.95 | G 4.84 | Q 4.58 | V 5 | W 3.71
V16: Q 5.45 | C 4.44 | S 4.01 | Y 4.46 | P 4.89 | D 4.25 | L 4.03
L17: Q 4.99 | D 5.01 | W 3.71 | M 4.14 | V 4.17 | Y 4.56 | G 5.21
S9: A 2.99 | P 4.38 | M 4.14
G4: I 4.21 | C 4.02
E12: R 2.99 | D 2.18
L13: C 3.67 | S 4.93 | D 5.59 | V 3.94 | Y 4.95 | I 4.71 | T 5.23
V7: T 4.79 | C 3.07 | F 3.42
